The test system of series [1] is MV4-11 cells. Put plainly: Phospho-array on in vivo grown MV4-11 cells, subcutaneous CDX model. On the set-up: species or system NSG mice. The settings on record: 10 mg/kg weekly i.p. How it is done: NSG mice were injected with 2e6 THP-1 luciferase cells or 2e6 MV4-11-luciferase cells via tail vein injection. Leukemia progression was quantified by i.p. injection of 100 μL bioluminescent substrate and IVIS imaging 8 minutes post injection. Progression was assessed weekly staring on Day 7 post-challenge. 10 mg/kg mab treatment was performed by i.p injection starting on day 8 and continuing twice a week until the end of the study. For the subcutaneous engraftment model, NSG mice were subcutaneously injected on the right flank with 5e6 MV4-11-Luc-LAIR-1^OE cells. Mice were treated by weekly i.p. injection of 10 mg/kg mAb. Tumor growth was measured by calipers twice weekly until end point.

Series [2] deals with AML patient bone-marrow cells (LSCs). Briefly: Colony forming unit assay, AML patient bone-marrow. Format: cell-based, human. Particulars: titrated concentrations, dose-response; vs isotype or vehicle. How it is done: (§1) Cryopreserved AML bone-marrow cells or healthy donor CD34 cells were thawed and plated in 96 wells plates. Cells were engaged with the indicated concentrations of LAIR-1 mAb or isotype control for 30 min at room temperature. Subsequently, cells were diluted in IMDM with 2% FBS and mixed with semisolid methylcellulose-based medium (MethoCult H4435 Enriched, StemCell Technologies, Vancouver, Canada) which contains human cytokines (stem cell factor, IL-3, IL-6, EPO, G-CSF, GM-CSF). Then, between 1e4 and 2.5e5 LSCs, or, between 1e3 and 5e3 healthy donor CD34 cells per well were plated on 6-well SmartDishes (StemCell Technologies, Vancouver, Canada). The cell-loaded plates were incubated at 37° C. with 5% CO2 in air and ≥95% humidity. On day 14, colony formation was counted by STEMvision (StemCell Technologies, Vancouver, Canada), an automated and standardized colony counting instrument. The automated results were confirmed and edited manually by the STEMvision Colony Marker software.

Series [3] has as its system MV4-11 cells. Briefly: Digital spatial imaging of bone and spleen of MV4-11 CDX mice. Format: in vivo, NSG mice. The source says: FIGS. 6A-6D display LAIR-1 signaling restricts AML survival signaling pathways in vivo. […] N=3 mice per group. […] N=6 mice per group. FIG. 6C is representative images of CDX mouse bones stained with DAPI and anti-human CD45 used to quantify the number of MV4-11 cells in the indicated region of interest (ROI) (highlighted). ROI area is equal between samples. […] Read counts are normalized to Histone H3 and ribosomal protein S6. N=3-11 quantified tissue regions across 2 isotype-treated or 2 LAIR-1 mAb-treated mice. Error bars represent standard error of mean. P values determined by Student's T test.
Protocols and reagents from NanoString were used for GeoMx digital spatial imaging (DSP). Briefly, formalin-fixed paraffin-embedded (FFPE) sections of tumor and spleen were deparaffinized and rehydrated, antigen-retrieved in citrate buffer, blocked, and stained with the Human Immune Profiling Core and Cell Death Panel overnight at 37 degrees C. Anti-HCD45-Alexaflour 647 antibody (NBP2-34528AF647 from Novus Biologicals, Centennial, CO) was used as a morphology marker at 5 μg/mL to identify MV4-11 cells. After washing, slides were fixed in 4% paraformaldehyde and nuclei were stained with Syto13. Slides were scanned and regions of interest (human CD45 regions) were acquired on a GeoMx DSP instrument (Nanostring, Seattle, WA). Approximately 5 regions of interest (ROIs) were collected per tissue, and samples were multi-plexed and processed on the nCounter Prep Station and Digital Analyzer as recommended. Data were analyzed on DSP Analysis software. Following quality control, data were normalized to housekeeping genes, and statistics were performed using a linear mixed model with a Benjamin-Hochberg correction.

Series [4] concerns MV4-11-LAIR-1 Overexpressing cells. Put plainly: In vitro culture of MV4-11-LAIR-1 overexpressing cells with or without anti-IgG crosslinking. Format: cell-based, human. How it is done: FIGS. 4A-4O show the collagen matrix is vital to LAIR-1 induced AML cell death. (FIGS. 4A-C). Flow cytometry quantification of primary live, dead, or apoptotic total blood leukocytes after ex vivo treatment with 10 μg/mL IgG isotype control (gray) or LAIR-1 mAb (red) in the presence (FIG. 4A) or absence (FIG. 4B) of exogenous collagen, or (FIG. 4C), CD451^Lo SSC^Lo blast cells in the presence of isotype control or LAIR-1 mAb. N=3 technical replicates. […] Each dot represents an individual donor. Red shading highlights surface expression >20000 arbitrary units. Blue shading highlights expression <20000 units. Line represents simple linear regression. […] N=4-7 donors. […] Mean pixel density from Western blotting normalized to isotype control condition and graphed relative to total SHP-1. N=3 technical replicates. FIGS. 4G and 4H show mean pixel density from phospho-array of AML patient PBMCs treated ex vivo with 10 μg/mL of IgG isotype control (gray), 50 μg/mL coated collagen (white), or 10 μg/mL LAIR-1 mAb+coated collagen (red) for G, MAPK activity or (FIG. 4H), mTOR and NF-kB activity. N=2 technical replicates. […] FIGS. 4M and 4N) 4E-BP1 expression as measured by Lumit assay (FIG. 4M) or cleaved caspase-7 as measured by Western blot (FIG. 4N) of cells treated as shown in FIGS. 4I-4K. Mean pixel density normalized to histone-3 for triplicate samples. […] Values normalized to isotype for each respective condition. n=3-4 technical replicates. P values calculated by Student's t test. Error bars represent SEM.

For series [5], the system named is bone-marrow cells from healthy control donors. Format: cell-based, human. How it is done:
as §1

The subject of series [6] is SHP-1. Put plainly: SHP-1 phosphorylation in primary patient AML blasts (Western blot). It is filed as cell-based, human. How it is done:
FIGS. 4A-4O show the collagen matrix is vital to LAIR-1 induced AML cell death. (FIGS. 4A-C). Flow cytometry quantification of primary live, dead, or apoptotic total blood leukocytes after ex vivo treatment with 10 μg/mL IgG isotype control (gray) or LAIR-1 mAb (red) in the presence (FIG. 4A) or absence (FIG. 4B) of exogenous collagen, or (FIG. 4C), CD451^Lo SSC^Lo blast cells in the presence of isotype control or LAIR-1 mAb. N=3 technical replicates. […] Each dot represents an individual donor. Red shading highlights surface expression >20000 arbitrary units. Blue shading highlights expression <20000 units. Line represents simple linear regression. […] N=4-7 donors. […] Mean pixel density from Western blotting normalized to isotype control condition and graphed relative to total SHP-1. N=3 technical replicates. […] FIGS. 4M and 4N) 4E-BP1 expression as measured by Lumit assay (FIG. 4M) or cleaved caspase-7 as measured by Western blot (FIG. 4N) of cells treated as shown in FIGS. 4I-4K. […] P values calculated by Student's t test. […]
For assessment of signaling in healthy cells, human monocytes were isolated from PBMCs from two donors using a StemCell monocyte isolation kit (StemCell, Vancouver, BC). […] Data were quantified using FIJI (NIH, MD).
(A western blot detects proteins with antibodies after separation by electrophoresis.)

Consider one molecule from patent publication US20240352121A1, “LAIR-1 AGONISTIC ANTIBODIES AND METHODS OF USE THEREOF” (NEXTCURE, INC., priority 2023, published 2024).

B1: LAIR-1 mAb: humanized agonist anti-LAIR-1 mAb, IgG1 backbone; h11B3 VL-2 (SEQ ID NO: 16), h11B3 VH-3 (SEQ ID NO: 27) (antibody, V domains shown)
VH: EVQLVESGGGLVQPGGSLKLSCAASGFTFNTNAMYWVRQAPGKGLEWVGRIRSKSSNYATYYAASVKGRFTISRDDSKNTLYLQMNSLKTEDTAVYYCVRGGSGFFAYWGQGTLVTVSS
VL: DIQMTQSPSSLSASLGDRVTITCKASEDIYIRLAWYQQKPGKAPRLLISTATSLETGVPSRFSGSGSGTDYTFTISSLQPEDIATYYCQQYWSTPYTFGGGTRLEIK
modifications: IgG1 constant regions; Synthetic: h11B3 VH-3; Synthetic: h11B3 VL-2
Take B1: in series [1], the MAPK pathway entry was “significantly suppressed”; the “activation of mTORC, AKT, and NF-kB” value is “inhibited activation”. For the same molecule, the CFU formation entry in series [2] is recorded as “significantly decreased”. For the same molecule, the “AML cells (human CD45+ cells) in the bones” value in series [3] (day 22 post-engraftment) was “reduction”. Further, in series [3] (in bones but not the spleen), the “anti-apoptotic BCL-XL” value is reported as “decreased levels” and the “anti-apoptotic uncleaved PARP” value was “decreased levels”. In addition, the “growth of LAIR-1 Overexpressing cells” value in series [4] (LAIR-1 mAb alone, vs isotype control) is on record as “only moderately suppressed”. The proliferation of cells result in series [4] (anti-IgG crosslinking conditions, after 3 days of culture) was “completely inhibited”. Further, in series [4] (crosslinking conditions), the “4E-BP1 (mTORC1 target protein)” value is “significant suppression” and the “activated caspase-7” value was “substantial increase”. Moreover, the CFU formation result in series [5] was “no change”. Besides, the “increase of SHP-1 phosphorylation relative to control” value in series [6] (LAIR-1 mAb alone) is 25%. Also, the “increase of SHP-1 phosphorylation relative to control” value in series [6] (cotreatment with LAIR-1 mAb and collagen) is recorded as 50%.
